The target of this assay is recombinant LHCII (major light-harvesting complex), Lhcb1*2 (AB80) derivative with N-terminal Cys-Cys-Cys motif, C79S and C-terminal His6 tag (pea (Pisum sativum)). The experiment in a line: sucrose density gradient ultracentrifugation; reconstituted monomers trimerized by His6 tag on Ni2+-sepharose columns, then sucrose density gradient (500 mM sucrose, 10 mM Tris-HCl pH 7.5, 5 mM TCEP, 0.05% (w/v) Triton X-100); trimer band collected and checked by CD (negative peak at 474 nm).

“recombinant LHCII (major light-harvesting complex), Lhcb1*2 (AB80) derivative with N-terminal Cys-Cys-Cys motif, C79S and C-terminal His6 tag (natural protein)”: the stoichiometry N (as a rule, the number of molecules, sites or subunits per partner or assembly) turned out to be 3.

Values taken from paper PMC5505961.
